Data reported in the DeepSol protein solubility set.

assay: soluble on expression in E. coli; label from the status in PepcDB or PDB records

| Sequence | soluble on expression in E. coli |
| --- | --- |
| MGSDKIHHHHHHMQVGTIFGHKNSEGTLVSSAAIIPYESKLASIGMVIVSSQCRGLGLGREVTEACIKATLEDTTLMLIATDEGRPLYERLGFAAVERIHKHLCDDYKEPESIPSMDVTIEELRSNDFRQLVQLDEGAMGVRRSRFLKQRTTQANQSLVAKDKAGNVIGYGLSILGPIHLIIGPIVAPNHEIACLILDRLACQHKGKLRMDVPSGHHTFLQHLQRRGFTEVNTPPVMAKQSAYEPRRNGTLFAIAAQVFG | not soluble |
| MGSDKIHHHHHHMRALLCGYYGEGNGGDEALLAALLQLLPPTVEPLVLSGNPAATRTCYGVEACDRRSGAAVWQALRRSDLFIFGGGSLIQDVTSWTSPLYYCGLMGLAQQLGLKTIAWAQGIGPLQRKRTRWLARRTFQHCDRITVRDRGSAALLKEWGISVAIAPDPVWALEPLPLDQPLSNQEAIAVCLRPHPELTPERSDRLKAALTTLQSQTQAPILLIPFHHQQDRPLAAQWASEIPQAEVLDWQHPRQLLSYFQSVRLTIAMRFHGLVMAAAAGNRCFGLSYDPKVRRFLDALEQPGWDLPEIPDSAEAIAAAWLESWQAEPIHAAAIADLRQQVDVHRQALVF | not soluble |
| MGSDKIHHHHHHMRASSHLPQLHGRLDLTFERRRGTTRLVASEQTPPLNVSRVLRTEEVDLATVYLVETSGGVVSGDSQTIAIYVGEGARVELIPQSATKVYPSRKQGESSTQQVWLRVDEGAAAFWKPESIIPFRKASFLQSTRFHLHSSSTFFYGDMLTPGRVHHNERFQYEQVDSLVEIYLDETLVVHDRVHLQPKDQLQTIGRLDGYSYYGAVWMHAPILKGAHLEQWMENGGQNDRFAYTCVAEGLIHVRWLSESSWRLRAALNDLYTAFRTFALKGE | not soluble |
| MGSDKIHHHHHHMREGSIVKLESLINQKYSNLNQTEKEILAFIIENRDFVRKASLSEVAEKSLFSKSAIFRCCKKIGLTGFSQLRYVLTDEKDSEQDSLISVDYLAQTVKSMLWTVNQFKSTNADDIYATLAAAGTIYIYSTGWQQQIMAQQLQRDLYLIGKFAFVFPTGHDEMQLSSTKIKPGDAVIVISYKGMNATIVQLVNNLKLNGVRIVSFTSFRQNRLAQAANFNLYYDIINKTVGIERKTERFFANLTLLIDIFSMGFANYLVAKEERDHEHGEYGQRKSK | not soluble |
| MGSDKIHHHHHHMRGKMIDDPIDLLRQYSRKLVRELGMLQLNKLAAKEQPSYWHTLIEINKEPNITISKLSQLLLVSLPTLSRIVNSLINDELVTVNEGLDKRERFLRVTDKGKEKVNYIDEYSNTKIKRAFHYLTDEEREQVITAIGKYAQALEQSRLIRDQIRILRLSTSRALRKQIVNMIENIQVNEFHLSITPEINASILKAEEEYCYYSSCNFWYAVDEQGGIIGSIGLKKLNHTEGEVKKFFIAPKYRGLGLAQKLMLTLVRNAMKHGFKKLFLGTVAQLNAARRFYEKNGFVLVNKNSLPKEFELCPLDTHFYYCETDKLDKSLRELI | not soluble |
| MGSDKIHHHHHHMRHIAHYCVAHPAGSMVVPGTRKKRELLPSAAPWRLSGVFVSLDEIRKDWTTLGAAAPLWAVCVDPAKRHGGWDDDEFLASGRAEIDAAMARLAELGIAHGRERALDFGCGAGRLSNALAAYFDRVVGVDISAPMLAEARRLDRSGGRIDFLLNDAPDLKIFPDASFDLVYTDLVLQHLPPPLARGYLAEFARVLRPGGALVAGMPATERRTVKGLVFRYAPHRVIRFIQRVLLGYPAPMRMHTMPPEQMRELLASHGVRVVSAEEYAGDDHGTHWVHMRYYARKDPGAAL | not soluble |
| MGSDKIHHHHHHMRIAPLPPLQCLVAFESAVRHASFTKAAAELHLTQSAISRQIAQLEDFLGRSLFVREHRALRLTIAGEGYAKHVQWLLASCSEATLDVMKRYGDMELTIACSSGVAVLWLTPRLGAFRAAHPNVRIRMIVRDGLASLSPAEFDVGLYYIRQRAEPHFTARRLFDEDVYPVCSPGYLAGRVLTPAGLVHETLLVQEDGQRQWMSWSEWFRLNHVQMPASPQAVVVNHYPQLVQMAILGQGVVLGWRHMIDACLSEGLLVRATQASASHGGGYYVVSPNDRSQNQAARLFTRWVFEQAEAQMGRAAS | not soluble |
| MGSDKIHHHHHHMRIGFLSHAGASIYHFRMPIIKALKDRKDEVFVIVPQDEYTQKLRDLGLKVIVYEFSRASLNPFVVLKNFFYLAKVLKNLNLDFIQSAAHKSNTFGILAAKWAKIPYRFALVEGLGSFYIDQGFKANLVRFVINSLYKLSFKFAHQFIFVNESNAEFMRNLGLKENKICVIKSVGINLKKFFPIYVESEKKELFWKNLNIDKKPIVLMIARALWHKGVKEFYESATMLKDKANFVLVGGRDENPSCASLEFLNSGAVHYLGARSDIVELLQNCDIFVLPSYKEGFPVSVLEAKACGKAIVVSDCEGCVEAISNAYDGLWAKTKNAKDLSEKISLLLEDEKLRLNLAKNAAQDALQYDENIIAQRYLKLYDRVIKNV | not soluble |
| MGSDKIHHHHHHMRISLSTGTLFTFPLGKVMAIARDAGFDGVELIVNQDFQKVNCRTLIRELAEILPIHSMHAPFMPLDGWGSSIDSLKRCVELSADCGVQLVNFHPPSWMGFELGFWRWLYRVMDFQKEVGQGGVIVTLENMPWVGKRVRMNPHILSSTTKFIDFIQERNLFMTFDTTHMGSGKANFINDFYLCYNSGRIRNIHFSDYGHGREHLLPGHGILPLTRFLNHLRSTGYNDTLTLELSPEEFPRDERIIVESLREILSYLRKETEHPIP | not soluble |
| MGSDKIHHHHHHMRIVVSGGGTGGHIYPALAMIREIERRTPCEVLYIGTENGLEADIVRRAGIPFESIEISGIRRSLSFENVKTGFRFLKSVVRVRKLLRDFQPDIVVGTGGFVCGPVLYTAAKMGYKTLVHEQNSLPGITNKFLARYVDRVALSFKGSGHHFGKNKGKTILIGNPRASEVAMLQIDPVEEKRKYGFEQDRPLIVVYGGSRGAPAINKAVVDMIPKLTETDWSLLFVTGQVHYEDIQAQLGTLPDRIQLRPFIYDLPLILKASQLVISRSGASTLAELTTLGLPSILIPSPYVTENHQEVNASSLVETGASLLIRESELTGDRLFDACTKAIADQADMSKASLALGMPNAASDLVDELLRLIQRKN | not soluble |
| MGSDKIHHHHHHMRIVYRASETFKKVHASTALVKAIRGPIGSGKSVGCVLEMFRVAQQQEPNAQGVRKTRWACVRNTYPELKGTVIKTFQTWIPEQICPIKYDSPITGKMNINHPDGKTRIEAEFLFLSMDKPKDVKKLMSLELTGIWINEAQFLPVSLVTEAVTRTGRYPEKRVEEGFMGATWNGMIMDTNSPDDDHWWYQFEQGIDEETEQPLKPKGWEFFVQPGALIDITGMPLATLSDEIKRNIEQGHYDDYLGHRFVANPIAENVINHKKGHGYWFDNIQGQTLNWIKSRVCNEFATVQQGKPVFGDHFNKELHVSTEKLVPVKGWETFIGLDFGLTPAAIIGQIAPIGQLRIVDEIVATGMGIERFITEQLSPLLRSRYAECAIQIIGDPAGVQRAQTDERTCFQLLEEYGFNARPAESNNTTARLEAVRWWLSRLVGKGQPAMLISPHCKTLIKGYETGYAYRQLNVSGEEKYTETPDKNRYSHPHDANQYLCLGAMPSLFKEQVINIKTHQPLSNITGY | not soluble |
| MGSDKIHHHHHHMRKDKNGTQEPKAKYRVRNWAAYNAGLINRGNITMWIGDDALANMPDTEPTRGRSRLYSDALIQALLGLKTVFHLPLRALQGFAQSLRDLAFAELPVPNYTTVCRRAQALQVKLPVIHSDEPLHLVVDSTGAKVCGEGEWKVRQHGYSKRRTWRKVHLALDANTGQLRAALMTHQDVADGEVLPELLEQISADESIDTIGGDGAYDTQACYASITARGALPSIPPREGAVHWPTTTPGASRRNAALDAIAQGSRREWKQQSGYHRRSLAENAMYRLKTLTGPCLWARRTDTQATEVAVRVGVLNRMAELSRPQSVRIARDHEQRHHFVLTPDLCNNVHSSAERRQGRVSCAMHATI | not soluble |
| MGSDKIHHHHHHMRKLPPLRALQIFEAAARHAHFSRAATELCITQSAVSHQVRLLEAHFGERLFIREGRQLCLTSKGNVLYHELERIFNELNDLSMQITGDCNDQLRLAVYSSFAIKWLIPRLSDFHRLHPQIKIRLDMITDDPQMSDSVADMFITGQSGQPGYVHRMLHQERLIPVICPGLLNTDHSALSVLRQHALLTVDEGPIGFDWERWLKVNSISIAATQQQHVFSHVLLAIEAAIAGQGIALASDFMVERDISKGALVALDLPAMLTGFEFNFSCKQRRLKEPAIAAFVQWLTKK | not soluble |
| MGSDKIHHHHHHMRLAFFGDVHGNFEALKAVLEDMENKGVDEVFCLGDLVGYGPDPEAVVQTIMEKNIKTIMGNYDDAVGYSKESCGCSYAPGRETEVGDISLKWSIENTSEKTREFLRNLPKKLSFEVEGVRFLLVHGSPLNELLEYVKPNTPPDRLKKIVESVEENVVVNGHTHLPMVKWVMGKLVLNPGSAGRPKDGDPRASYMIVDVENGTVSFEIVRVRYDVKTTVEKIARNGLPVELATVLALGQTFDMGPGKVTFTLGR | not soluble |
| MGSDKIHHHHHHMRLNLRQIEVFRAIMLTGSISGAAKLLHVSQPAVSRLISYAEQRLGLALFERIKGRLYPTPEAQRLFVEVNAVYQGVQRVNEIAEDLIENRMGHLRIACSPNLGQSLLPRAIAAFYERLPDVRIILHTMIPNVLLQAVLTQQVELGIAFLQDTHPNVESQLLYENRMVAAVPASHPFARRKTLAVRDLANQPLIGYGSDIPLGQLVRRLFSDESLVPQVKVEVQQAHVACALAQAGTGIALIDELTVAGPVWPQIVVKPIVPTLAAPVSVLHPVPTPLSRLAHAFIDTLHSLAAHA | not soluble |
| MGSDKIHHHHHHMRNPPFIVEYELTLRCNFRCKHCYCEAGKPHLEELSFEEIKELILDMKELGTWALDIVGGEPLLHPQILDILAFGKEVGQRLMINTNGSLATKEMVQKIKKANPDVLIGVSLEGPDPETNDFVRGTGNFKRAVQGIKNFVDEGFQVTILNVINKRNWRKFEDMVKLALELGVNALYVDRFIPVGRGMIHARELDMNPEEWRVAIKHVLGVIENYKNHLTFYVEESISGKPCSAGITHASVLADGTVVPCGHFRYRKEFYMGNVREKKFSEIWHEYTPIPSPASCQQCPILNECGGGCKAYYLLREHEKDEAICFLNKERYNIK | not soluble |
| MGSDKIHHHHHHMRRALRPSMELISARTSSTSSIWTPRVSQSSELVFDATGCCSSLSGSSACDRGDGIVRGITMDRQRLQALGHKVRMIPAQFVKPHVKSNKSDIIDAEAIAEAATRPTMRFAAIKSEEQADLQALHRVRDQMIGTRTRLINQMGAFCLEYDIALRQGAGLFKLDLPLVLDDLE | not soluble |
| MGSDKIHHHHHHMRRTYLTLSEEDKDYLKTLSKKRTIQAQIVDRAKILLYKSDGMTFNAIAEKLAISSATVRLCVSKYYEGGIEKALFDTQRPGRPSEITDDAKAWIINLACQRPVELGYAQELWTLNALHKHIQKHAEEAGYPRLTTITKPYIQKFLKEQDIKPFKIRYYCEKRDQDFESKMHEVLLVYKQIEMQFDENGTLIVPDDYKLTITVSYDEKPGIQAISNTAPDLRPTTENGEVYRDAEYKRLGTLSLLAGIDLLTGEAIPLVSETHKSSDFIEFLKIRDKKYPLQDTIRIILDNHSAHTSKETQRFLDTMPKGRFKFVFTPKHGSWLNMIESFFSKMTKQMLRGIRVKTKQELEERIYQYFEEVNREPVVYHWKYKMDEIEKKKCCTELWMPFSAH | not soluble |
| MGSDKIHHHHHHMRSITTNYSDDGYNFAFLDEQTKRMVRRTLLKALSIPGYQVPFGGREMPLASGWGTGGIQITASVLGPNDRLKVIDQGADDTTNAVSIRRFFQTVADISVTESTEEATIIQTRHRVPEAPLTEGQILVYQVPEPEPLRKLIPRESETRKMHAYAEYGAMQVTLYENIARFGRIAKTYDYPAMINGRFLMSPSPIPKFDNPKMANNPAIQFWGAGREKRIYAVPPYTSVRSLDFDDHPFEVQTWQGCCALCGSTVSYLDEVITDDKGSRMFVCSDTDFCNTRQAQAAAQPNSAGGES | not soluble |
